Where a chain is given by its changes, count along the chain named. Names may count otherwise.
Experiments:
cryo-EM structure = target: the molecule itself; assay: cryo-EM structure
cross-linking = target: the molecule itself; assay: cross-linking
[1] = target: full-length Thermus thermophilus MgtE (Thermus thermophilus, UniProt Q5SMG8); assay: ITC

B1: full-length Thermus thermophilus MgtE (natural protein, UniProt Q5SMG8 1-450, looked up)
chain: MEEKLAVSLQEALQEGDTRALREVLEEIHPQDLLALWDELKGEHRYVVLTLLPKAKAAEVLSHLSPEEQAEYLKTLPPWRLREILEELSLDDLADALQAVRKEDPAYFQRLKDLLDPRTRAEVEALARYEEDEAGGLMTPEYVAVREGMTVEEVLRFLRRAAPDAETIYYIYVVDEKGRLKGVLSLRDLIVADPRTRVAEIMNPKVVYVRTDTDQEEVARLMADYDFTVLPVVDEEGRLVGIVTVDDVLDVLEAEATEDIHKLGAVDVPDLVYSEAGPVALWLARVRWLVILILTGMVTSSILQGFESVLEAVTALAFYVPVLLGTGGNTGNQSATLIIRALATRDLDLRDWRRVFLKEMGVGLLLGLTLSFLLVGKVYWDGHPLLLPVVGVSLVLIVFFANLVGAMLPFLLRRLGVDPALVSNPLVATLSDVTGLLIYLSVARLLLEAV
For B1, the “stoichiometry N” value (cryo-EM structure) was 2.

B2: MgtE double cysteine mutant T336C/L421C (natural protein, Thermus thermophilus, UniProt Q5SMG8 1-450, looked up)
chain: B1 chain with T336C, L421C
B2: binds (cross-linking).

B3: Fab antibody fragment Fab705 (Fab, V domains shown)
VH: EVKLQESGVELVKPGASVKISCKASGYSFTGYNMNWVKQSHGKSLEWIGNISPYYGTSIYNQNFKGKATLTVDRSSSTAYMQLNSLTSEDSAVYYCARGESFSNYEGYYAMDYWGQGTSVIVSS
VL: DVLMTQTPLSLPVSLGDQASISCRSSQSLVHSDGNTYLHWYLQKPGQSPKLLIYKVSNRFSGVPDRFSGSGSGTDFTLKISRVEAEDLGVYFCSQSTHVPWTFGGGTKLEIK
Work on B3 yielded a Kd [1] of 253 ± 71.1 nM.

From article doi:10.1101/2020.08.27.270991 (bioRxiv, 2020)
